Consider 1 molecule from patent US20250296984A1, “THERAPEUTIC AND DIAGNOSTIC AGENTS AND USES THEREOF” (priority 2022, published 2025).

For assay [1], the target named is T1, US28 protein from HCMV strain TB40/E on HEK Phoenix Ampho cells (Human cytomegalovirus, UniProt P69332, A8T/D15E/E18L/V24T).
T1 construct: expressed in transfected cells; host or cells: HEK Phoenix Ampho (ATCC-CRL-3213)
As to the kind of experiment: Flow cytometry, HEK Phoenix Ampho cells transfected with US28 (TB40/E). In kind it is binding. Particulars: mock subtracted, fold-difference minus 1, sign = increase or decrease. The protocol:
(§1) ii. Materials: • Cells: HEK Phoenix Ampho (ATCC-CRL-3213), p 21. • Staining buffer: PBS with 1% BSA, 2 mM EDTA. • Plasmid: Encoding US28 protein from different HCMV strains: DB; TB40/E; Merlin; and VHL/E. • Blocking: Human TruStain FcX™ (ref 422302). • Live Dead: Invitrogen™ eBioscience™ Fixable Viability Dye eFluor™ 780 (ref 13539140). • Primary antibodies: 7B1F3 (6.76 nM=1 μg/ml); hum7B1F3 (6.76 nM=1 μg/ml).
(§2) The day before transfection, HEK Ampho cells were seeded in a 1×6-well plate with 1×10^6 live cells/well, 2 mL/well. Seeded 4 wells for HEKPhoenix_plasmids. Seeded 2 wells for HEKPhoenix_Mock transfected. Incubated the cells in a 37° C. incubator with >80% relative humidity and 5% CO2.
(§3) After 1 day, cells will have adhered and reached >60% confluency. Removed 700 uL media from each well prior to transfection. Allowed X-tremeGENE™ HP DNA Transfection Reagent, DNA and diluent Opti-MEM® I Reduced Serum Medium to warm to +15° C. to +25° C., and vortexed gently. Placed 100 μL diluent in a sterile tube for each condition. Added 1 μg plasmid DNA. Pipetted gently to mix (DNA was not added for the mock condition): • DB (683.3 ng/μL): 1.46 μL • TB40/E (742.05 ng/μL): 1.35 μL • Merlin (70.78 ng/μL): 14.13 μL • VHL/E (51.87 ng/μL): 19.28 μL
(§4) Added 3 μL X-tremeGENE™ HP DNA Transfection Reagent to the diluted DNA. (3:1 ratio of reagent to DNA). Pipetted gently to mix, then: • 1. […]

Assay [2] addresses T2, US28 protein from HCMV strain Merlin on HEK Phoenix Ampho cells (Human cytomegalovirus, UniProt P69332, S330G).
T2 construct: expressed in transfected cells; host or cells: HEK Phoenix Ampho (ATCC-CRL-3213)
Kind of assay: Flow cytometry, HEK Phoenix Ampho cells transfected with US28 (Merlin). The class given is binding. The note with it: mock subtracted, fold-difference minus 1, sign = increase or decrease. The protocol: as §1, §2, §3, §4

Assay [3] concerns HEKPhoenix_Mock transfected cells. Kind of assay: Flow cytometry, HEKPhoenix Mock transfected cells. In kind it is binding, human. The note with it: antibody concentration 6.76 nM, Myc tag detection. Here is the method:
as §1, §2, §3, §4

The target in assay [4] is T3, US28 protein from HCMV strain DB on HEK Phoenix Ampho cells (Human cytomegalovirus, UniProt P69332, D170N/D19A).
T3 construct: expressed in transfected cells; host or cells: HEK Phoenix Ampho (ATCC-CRL-3213)
Kind of assay: Flow cytometry, HEK Phoenix Ampho cells transfected with US28 (DB). The class given is binding. Particulars: mock subtracted, fold-difference minus 1, sign = increase or decrease. The protocol: as §1, §2, §3, §4

B1: 7B1F3-Myc: 7B1F3 labelled with a Myc tag (antibody, V domains shown)
VH: EVQLQQSGAELAKPGASVKMSCKASGYTFTNYWMHWVKQRPGQGLEWIGYVNPRTGYTEYNQKFKDKATLTADKSSRTAYMQLSSLTSEDSAVYSCARILNGTGFAYWGQGTLVTVSA
VL: DIVLTQSPSSLTVSVGEKFTMSCKSSQSLLYSSNQKNYLAWYQQKPGQSPKLLIYWASTRESGVPDRFTGSGSGTDFTLAISSVKPEDLAIYYCQQYYSFPLTFGAGTKLEIK
Turning to B1, the “Variation in binding, relative to determined binding to US28 as encoded by VHL/E; TB40/E” value in assay [1] is “+0.14”. Also, the “Variation in binding, relative to determined binding to US28 as encoded by VHL/E; Merlin” value in assay [2] is listed as “+0.21”. Besides, the “Preliminary Binding Data, Mock” value in assay [3] was 0.06. Besides, the “Variation in binding, relative to determined binding to US28 as encoded by VHL/E; DB” value in assay [4] was “+0.64”.
